Measurements from PMC9284671 (Structure (London, England : 1993), 2022).

Key:
Experiment in all cases: ELISA
[1] = molecular target: SHC014 S2P (pre-fusion-stabilized soluble spike) (Bat SARS-like coronavirus RsSHC014, UniProt U5WLK5, stabilised)
[2] = molecular target: RaTG13 S2P (pre-fusion-stabilized soluble spike) (Bat coronavirus RaTG13 (GenBank …, UniProt A0ABF7PLN6, stabilised))
[3] = molecular target: MERS-CoV S2P (pre-fusion-stabilized soluble spike) (MERS-CoV EMC/2012 (GenBank AFS88936), UniProt K0BRG7, stabilised)
[4] = molecular target: WIV1 S2P (pre-fusion-stabilized soluble spike) (Bat SARS-like coronavirus WIV1, UniProt U5WI05, stabilised)
[5] = molecular target: SARS-CoV S2P (pre-fusion-stabilized soluble spike) (SARS-CoV Urbani, UniProt P59594, stabilised)

Measured: binding result

B1: WS6 (monoclonal antibody, IgG) (antibody, V domains shown)
VH: EVQFQQSGTVLARPGASVKMSCKASGYTFTNYWIHWVKQRPGQGLEYIGGTYPGNGDTTYNQKFKGKAKVTAVTPTSTAYMDLSSLTNEDSAVYYCTRTGSYFDYWGQGTTLTVSS
VL: QIVLTQSPAIMSASPGEKVTISCSATSSVSYIYWYQQRPGSSPKPWIYRTSNLASGVPVRFSGSGSGTSYSLTISNMEAEDAATYYCQQYQSYPPTFGAGTKLELK
binds: all assays above
